Experimental data published in patent publication US20140303084A1 (Biogen, published 2014).
Square brackets hold non-standard residues; d marks the D form. Primed or numbered codes have the meaning given here. Side chains are listed from the residue outwards. Ends that are not written are not given here. * marks the point of attachment. Biotin = O=C1N[C@H]2[C@H](CS[C@H]2CCCCC(=O)*)N1; NMeL = CN[C@@H](CC(C)C)C(=O)O; PEG2′ = PEG2 spacer unit

T1: human Factor VIIa (human, UniProt P08709 61-466)
T1 construct: Bought protein; also called hFVIIa; FVIIa
T1 sequence (looked up): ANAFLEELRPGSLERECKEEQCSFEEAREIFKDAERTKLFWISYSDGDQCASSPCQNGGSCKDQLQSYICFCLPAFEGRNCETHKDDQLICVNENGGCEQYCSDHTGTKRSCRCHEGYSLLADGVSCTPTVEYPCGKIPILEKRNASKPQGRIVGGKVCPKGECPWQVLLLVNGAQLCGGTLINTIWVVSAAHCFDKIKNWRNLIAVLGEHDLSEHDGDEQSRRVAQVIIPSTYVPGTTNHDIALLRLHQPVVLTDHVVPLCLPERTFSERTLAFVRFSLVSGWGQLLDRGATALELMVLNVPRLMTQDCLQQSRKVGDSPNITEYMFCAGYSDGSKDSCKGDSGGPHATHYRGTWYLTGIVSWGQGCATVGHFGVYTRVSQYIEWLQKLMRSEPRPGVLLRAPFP

B1: compound 19 (peptide)
peptide: RRAPGKLTCLASYCWLFK([PEG2′-Biotin])TGIA-NH2
modifications: not fully specified (bridges); printed as RRAPGKLTCLASYCWLFK(PEG2-Biotin)TGIA; cysteine pairing not given here
notes: also called compound 4 biotinylated at K18

target: T2, human Factor IXa (human, UniProt P00740 47-191; P00740 227-461); experiment: cell-based or functional assay

Binder	EC50, FXa generation assay with human FIXa [nM]
KLTCLASYCWLF-NH2 (not fully specified (bridges); cysteine pairing not given here) [compound 1]	300

target: T2, human Factor IXa; experiment: cell-based or functional assay; remark: another data set of the same source

Binder	EC50 [µM], FXa generation assay [µM]	EC50 [µM], FXa generation assay with hFIXa [µM]
TLLYQNRTCLASYCWLFDKRSV	> 50	
VDKGHQLRCQAGYCWLLGYNRE	> 50	
B1		< 0.5
DAGPNKLRCLASYCQLFGGGHA	> 50	
SGGSGKLTCLASYCWPFGSQVR	> 50	
SGFGMKLTCLASYCGLFQGEIG	< 0.5	
[dK][NMeL]TCLASYCWLF-NH2 (cysteine pairing not given here) [compound 2]	< 0.5	< 0.5
LLHAQKLSCLASYCWVFDAEWD	< 0.5	
RRAPGKLQCLASYCWLFWTGIA-NH2 (cysteine pairing not given here) [compound 25]		< 0.5
RRAPGKLQCLASYCWLFWTAIA	< 0.5	
KLTCLASYCWLF-NH2 (not fully specified (bridges); cysteine pairing not given here) [compound 1]		< 0.5
QDGVEKLTCLASYCWRFGDHGA	> 50	

target: T2, human Factor IXa; experiment: cell-based or functional assay; remark: another data set of the same source

Binder	EC50 (µM), FXa generation assay, without phospholipids [µM]
[dK][NMeL]TCLASYCWLF-NH2 (cysteine pairing not given here) [compound 2]	0.2
KLTCLASYCWLF-NH2 (not fully specified (bridges); cysteine pairing not given here) [compound 1]	0.4

target: T1, human Factor VIIa; experiment: BLI (ForteBio Octet 384), peptide on streptavidin probes, soluble hFVIIa
Description: (§1) Briefly, a layer of molecules attached to the tip of an optical fiber creates an interference pattern upon incident white light. The combination of the optical fiber and biocompatible surface creates the physical conditions needed for BLI, allowing the detection of changes in mass accumulation on the tip of the probe. This is measured by alterations in the spectral shift (nm). These changes are recorded as a binding profile, a continuous, real-time monitoring of the association and dissociation of interacting molecules.
(§2) Control SA probes were loaded with 4M guanidinium chloride in the absence of biotinylated peptide for reference subtraction. After loading, probes were incubated in HBS-P for 300 sec to establish a new baseline. […] This is described as the dissociation phase. The equilibrium KD was derived from the non-linear regression analysis of the subtracted data (Reaction probe minus Reference probe) using a 1:1 binding model with ForteBio software (Version 7.0).

Binder	Kd [nM]
RRAPGKLQCLASYCWLFWTGIA-NH2 (cysteine pairing not given here) [compound 25]	250

target: T2, human Factor IXa; experiment: BLI (ForteBio Octet 384), biotinylated peptide on streptavidin probes, soluble hFIXa 0-2000 nM, steady state, 1:1 model
Description: as §1, §2

Binder	Kd [nM]
B1	120
